In patent US20230183319A1 (published 2023):

T1: activin A (UniProt P08476 311-426)
T1 chain: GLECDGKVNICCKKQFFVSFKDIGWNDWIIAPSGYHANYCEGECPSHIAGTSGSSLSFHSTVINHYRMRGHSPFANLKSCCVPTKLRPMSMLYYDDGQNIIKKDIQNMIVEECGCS

T2: activin B (UniProt P09529 293-407)
T2 chain: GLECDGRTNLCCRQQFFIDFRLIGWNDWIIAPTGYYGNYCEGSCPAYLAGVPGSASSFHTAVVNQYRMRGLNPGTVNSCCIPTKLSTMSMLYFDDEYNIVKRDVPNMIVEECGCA

T3: BMP6 (UniProt P22004 382-513)
T3 chain: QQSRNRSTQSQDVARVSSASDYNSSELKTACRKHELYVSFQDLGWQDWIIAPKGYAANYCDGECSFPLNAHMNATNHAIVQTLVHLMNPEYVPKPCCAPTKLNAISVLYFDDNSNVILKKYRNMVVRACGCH

B1: BMP9 (ligand)
chain: SAGAGSHCQKTSLRVNFEDIGWDSWIIAPKEYEAYECKGGCFFPLADDVTPTKHAIVQTLVHLKFPTKVGKACCVPTKLSPISVLYKDDMGVPTLKYHYEGMSVAECGCR
B2: BMP10 (ligand)
chain: NAKGNYCKRTPLYIDFKEIGWDSWIIAPPGYEAYECRGVCNYPLAEHLTPTKHAIIQALVHLKNSQKASKACCVPTKLEPISILYLDKGVVTYKFKYEGMAVSECGCR
B3: GDF11 (ligand)
chain: NLGLDCDEHSSESRCCRYPLTVDFEAFGWDWIIAPKRYKANYCSGQCEYMFMQKYPHTHLVQQANPRGSAGPCCTPTKMSPINMLYFNDKQQIIYGKIPGMVVDRCGCS

Tests used:
L38Q = assay: SPR; 25C
L38R = assay: SPR; 25C
Q98I = assay: SPR; 25C
Q98V = assay: SPR; 25C
Q98R = assay: SPR; 25C
Q98K = assay: SPR; 25C
L38D = assay: SPR; 25C
Q98L = assay: SPR; 25C
Q98A = assay: SPR; 25C
K74A = assay: SPR; 37C
K55A / F82I = assay: SPR; 37C
GDF11 = target: B3; assay: SPR; 37C
GDF8 = GDF8 (UniProt O14793 267-375); assay: SPR; 37C
GDF8, sequence (O14793 267-375): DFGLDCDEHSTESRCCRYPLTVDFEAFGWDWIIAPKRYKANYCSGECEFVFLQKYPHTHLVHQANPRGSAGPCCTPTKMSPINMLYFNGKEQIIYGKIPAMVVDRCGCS

activin A = target: T1, activin A; assay: SPR; 37C
activin B = target: T2, activin B; assay: SPR; 37C
BMP6 = target: T3, BMP6; assay: SPR; 37 C
BMP10 = target: B2; assay: SPR; 37 C
BMP9 = target: B1; assay: SPR; 37 C
N35F = assay: SPR; 25C
N35Q = assay: SPR; 25C
L79K / F82K = assay: SPR; 37C

Kd (L38Q)	Kd (L38R)	Kd (Q98I)	Kd (Q98V)	Kd (Q98R)	Kd (Q98K)	Kd (L38D)	Kd (Q98L)	Kd (Q98A)	Kd (K74A)	Kd (K55A / F82I)	Kd (N35F)	Kd (N35Q)	Kd (L79K / F82K)	Binder	other results
33 pM	50 pM	59 pM	47 pM	74 pM	69 pM	63 pM	71 pM	43 pM	360 pM	134 pM	–	–	–	B1	–
–	–	–	–	–	–	–	–	–	–	–	–	–	–	ActRIIB-G1Fc (SEQ ID NO: 519) (Fc fusion) GRGEAETRECIYYNANWELERTNQSGLERCEGEQDKRLHCYASWRNSSGTIELVKKGCWLDDFNCYDRQECVATEENPQVYFCCCEGNFCNERFTHLPEAGGPEVTYEPPPTAPTGGGTHTCPPCPAPELLGGPSVFLFPPKPKDTLMISRTPEVTCVVVDVSHEDPEVKFNWYVDGVEVHNAKTKPREEQYNSTYRVVSVLTVLHQDWLNGKEYKCKVSNKALPVPIEKTISKAKGQPREPQVYTLPPSREEMTKNQVSLTCLVKGFYPSDIAVEWESNGQPENNYKTTPPVLDSDGSFFLYSKLTVDKSRWQQGNVFSCSVMHEALHNHYTQKSLSLSPGK	Kd (GDF11): 4.91 pM; Kd (GDF8): 79.5 pM; Kd (activin A): 13.5 pM; Kd (activin B): 22.5 pM; Kd (BMP6): 431 pM; Kd (BMP10): 8.41 pM; Kd (BMP9): 83.1 pM
89 pM	110 pM	210 pM	48 pM	320 pM	68 pM	150 pM	65 pM	210 pM	33 pM	7 pM	220 pM	270 pM	68 pM	B2	–
21 pM	7 pM	49 pM	33 pM	20 pM	37 pM	30 pM	43 pM	37 pM	430 pM	90 pM	17 pM	20 pM	1600 pM	B3	–
200 pM	230 pM	157 pM	160 pM	300 pM	145 pM	230 pM	220 pM	155 pM	34 pM	47 pM	290 pM	320 pM	640 pM	Activin A (ligand) GLECDGKVNICCKKQFFVSFKDIGWNDWIIAPSGYHANYCEGECPSHIAGTSGSSLSFHSTVINHYRMRGHSPFANLKSCCVPTKLRPMSMLYYDDGQNIIKKDIQNMIVEECGCS	–
